Experimental findings from paper PMC9482650, “Quantitative fragmentomics allow affinity mapping of interactomes” (Nature Communications, 2022) are described below.

Broadly, the pKd is the Kd on a negative log10 scale, so that one unit is a factor of ten.

Some targets named below: PDZRN4_1, Q6ZMN7; SCRIB_2, Q14160; GIPC2, Q8TF65; MAST1, Q9Y2H9; PARD3_3, Q8TEW0; DLG4_1, P78352; IL16_1, Q14005; TJP1_2, Q07157; HTRA2, O43464; LIMK2, P53671; LNX1_2, Q8TBB1.
Holding throughout (assay): holdup assay
Holding throughout (set-up): key: below the threshold = too weak to quantify, mostly under pKd 3.1 to 4

The next assay addresses T1, RAPGEF6, Q8TEU7.
T1 sequence (Q8TEU7 525-625, limits assumed, looked up): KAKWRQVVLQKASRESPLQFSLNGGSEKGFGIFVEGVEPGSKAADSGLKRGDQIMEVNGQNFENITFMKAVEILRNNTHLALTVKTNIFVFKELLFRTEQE

For a further assay, the target named is T2, SIPA1L2, Q9P2F8.
T2 sequence (Q9P2F8 945-1036, limits assumed, looked up): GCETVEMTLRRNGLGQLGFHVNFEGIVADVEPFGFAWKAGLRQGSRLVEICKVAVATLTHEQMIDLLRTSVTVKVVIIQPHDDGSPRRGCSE

For another assay, the target named is T3, NHERF3_3, Q5T2W1.
T3 sequence (Q5T2W1 238-333, limits assumed, looked up): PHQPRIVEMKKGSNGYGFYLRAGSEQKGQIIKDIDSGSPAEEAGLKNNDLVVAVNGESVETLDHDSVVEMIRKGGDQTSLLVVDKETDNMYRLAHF

The target of a further assay is T4, SHANK1, Q9Y566.
T4 sequence (Q9Y566 658-767, limits assumed, looked up): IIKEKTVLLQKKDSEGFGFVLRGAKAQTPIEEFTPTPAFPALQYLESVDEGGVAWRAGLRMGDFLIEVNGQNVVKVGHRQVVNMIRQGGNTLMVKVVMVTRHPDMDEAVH

For the next assay, the target named is T5, SNTB1, Q13884.
T5 sequence (Q13884 107-205, limits assumed, looked up): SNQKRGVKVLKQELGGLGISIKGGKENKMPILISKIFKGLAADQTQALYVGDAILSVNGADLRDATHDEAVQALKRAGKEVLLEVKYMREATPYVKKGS

In the next assay the target is T6, CARD11, Q9BXL7.
T6 sequence (Q9BXL7 662-765, limits assumed, looked up): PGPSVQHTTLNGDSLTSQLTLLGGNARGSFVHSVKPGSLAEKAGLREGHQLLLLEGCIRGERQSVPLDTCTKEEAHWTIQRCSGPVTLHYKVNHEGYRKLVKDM

For the next assay, the target named is T7, SNTA1, Q13424.
T7 sequence (Q13424 82-180, limits assumed, looked up): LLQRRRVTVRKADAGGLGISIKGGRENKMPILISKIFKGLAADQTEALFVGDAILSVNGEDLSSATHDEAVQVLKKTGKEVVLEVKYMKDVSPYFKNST

A further assay concerns the target T8, DLG3_2, Q92796.
T8 sequence (Q92796 221-321, limits assumed, looked up): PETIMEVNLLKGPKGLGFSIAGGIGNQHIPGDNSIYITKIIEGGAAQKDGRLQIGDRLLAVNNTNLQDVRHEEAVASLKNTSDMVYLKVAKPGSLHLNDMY

For another assay, the target named is T9, DLG3_1, Q92796.
T9 sequence (Q92796 125-227, limits assumed, looked up): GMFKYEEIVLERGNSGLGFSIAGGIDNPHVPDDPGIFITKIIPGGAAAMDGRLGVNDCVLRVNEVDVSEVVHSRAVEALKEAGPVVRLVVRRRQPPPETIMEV

Another assay has as its target T10, DFNB31_2, Q9P202.
T10 sequence (Q9P202 274-371, limits assumed, looked up): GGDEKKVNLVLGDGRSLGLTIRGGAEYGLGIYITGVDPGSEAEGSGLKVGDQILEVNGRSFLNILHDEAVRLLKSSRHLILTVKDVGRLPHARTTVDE

A further assay concerns the target T11, NHERF3_1, Q5T2W1.
T11 sequence (Q5T2W1 4-100, limits assumed, looked up): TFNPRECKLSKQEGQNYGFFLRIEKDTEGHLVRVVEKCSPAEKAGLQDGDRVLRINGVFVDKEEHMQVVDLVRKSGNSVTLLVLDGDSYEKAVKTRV

For the next assay, the target named is T12, TIAM2, Q8IVF5.
T12 sequence (Q8IVF5 885-986, limits assumed, looked up): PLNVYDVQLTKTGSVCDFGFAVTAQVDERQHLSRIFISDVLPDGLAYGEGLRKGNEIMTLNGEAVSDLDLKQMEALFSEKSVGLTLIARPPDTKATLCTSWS

In the next assay the target is T13, DLG3_3, Q92796.
T13 sequence (Q92796 374-475, limits assumed, looked up): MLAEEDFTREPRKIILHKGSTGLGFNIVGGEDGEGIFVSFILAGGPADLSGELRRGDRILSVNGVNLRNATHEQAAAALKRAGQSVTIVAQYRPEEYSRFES

The mark [1] stands for this setting: plain residues with an end cap or a label only (N-terminal biotin on a linker: ttds).
Setting [2] is: plain residues with an end cap or a label only (N-terminal biotin on a linker: ahx).

SCRIB_2, Q14160, sequence (Q14160 857-960): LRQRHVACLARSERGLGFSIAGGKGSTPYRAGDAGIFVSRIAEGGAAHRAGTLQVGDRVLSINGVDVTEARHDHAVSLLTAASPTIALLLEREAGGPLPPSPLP
TJP1_2, Q07157, sequence (Q07157 181-274): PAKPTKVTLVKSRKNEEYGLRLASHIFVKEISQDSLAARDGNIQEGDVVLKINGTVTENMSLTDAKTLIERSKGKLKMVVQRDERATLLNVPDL
PARD3_3, Q8TEW0, sequence (Q8TEW0 582-685): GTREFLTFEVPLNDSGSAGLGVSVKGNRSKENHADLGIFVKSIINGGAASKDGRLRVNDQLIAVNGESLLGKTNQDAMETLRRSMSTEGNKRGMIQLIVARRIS
DLG4_1, P78352, sequence (P78352 62-152): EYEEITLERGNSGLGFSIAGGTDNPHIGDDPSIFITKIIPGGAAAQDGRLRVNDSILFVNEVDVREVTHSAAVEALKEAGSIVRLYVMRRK
GIPC2, Q8TF65, sequence (Q8TF65 112-203): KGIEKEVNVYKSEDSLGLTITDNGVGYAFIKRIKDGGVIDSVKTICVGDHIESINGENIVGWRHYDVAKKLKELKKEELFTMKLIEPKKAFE
IL16_1, Q14005, sequence (Q14005 210-306): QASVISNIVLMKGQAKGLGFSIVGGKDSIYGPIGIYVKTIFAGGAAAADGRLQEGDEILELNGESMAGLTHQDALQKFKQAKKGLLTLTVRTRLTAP
LIMK2, P53671, sequence (P53671 143-248): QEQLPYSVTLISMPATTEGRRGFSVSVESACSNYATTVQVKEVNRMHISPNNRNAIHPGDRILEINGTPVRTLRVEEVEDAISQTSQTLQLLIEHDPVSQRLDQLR
HTRA2, O43464, sequence (O43464 355-458): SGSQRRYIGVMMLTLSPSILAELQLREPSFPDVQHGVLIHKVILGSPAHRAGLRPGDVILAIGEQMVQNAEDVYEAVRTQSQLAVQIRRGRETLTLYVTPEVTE
LNX1_2, Q8TBB1, sequence (Q8TBB1 371-470): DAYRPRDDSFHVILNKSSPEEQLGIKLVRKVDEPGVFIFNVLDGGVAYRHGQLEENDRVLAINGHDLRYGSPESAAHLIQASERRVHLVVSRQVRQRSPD
MAST1, Q9Y2H9, sequence (Q9Y2H9 962-1065): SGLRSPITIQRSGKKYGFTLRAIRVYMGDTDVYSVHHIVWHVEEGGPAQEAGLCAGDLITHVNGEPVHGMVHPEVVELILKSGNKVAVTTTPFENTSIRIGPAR
PDZRN4_1, Q6ZMN7, sequence (Q6ZMN7 213-318): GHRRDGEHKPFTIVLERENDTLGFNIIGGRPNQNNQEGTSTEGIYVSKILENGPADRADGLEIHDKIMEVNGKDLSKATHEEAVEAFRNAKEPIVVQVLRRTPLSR

Regarding KLVIKTETTV [RASSF6, Q6ZTQ3], the pKd was 4.15 in the assay with PDZRN4_1, Q6ZMN7 (setting [1]); 3.46 with RAPGEF6, Q8TEU7 (setting [1]); “below the threshold” with SIPA1L2, Q9P2F8 (setting [1]); “below the threshold” with NHERF3_3, Q5T2W1 (setting [1]); 3.95 in the assay with SCRIB_2, Q14160 (setting [1]); “below the threshold” with SHANK1, Q9Y566 (setting [1]). Also, the pKd with SNTB1, Q13884 (setting [1]) was 4.14; in the assay with CARD11, Q9BXL7 (setting [1]), “below the threshold”; with SNTA1, Q13424 (setting [1]) it was 4.36; in the assay with GIPC2, Q8TF65 (setting [1]) it was “below the threshold”; with DLG3_2, Q92796 (setting [1]), 5.53; in the assay with MAST1, Q9Y2H9 (setting [1]), 4.68. The pKd entry was “below the threshold” with PARD3_3, Q8TEW0 (setting [1]); 5.04 in the assay with DLG4_1, P78352 (setting [1]); “below the threshold” in the assay with IL16_1, Q14005 (setting [1]); 4.52 with DLG3_1, Q92796 (setting [1]); “below the threshold” in the assay with DFNB31_2, Q9P202 (setting [1]); “below the threshold” in the assay with NHERF3_1, Q5T2W1 (setting [1]). Further, the pKd entry is “below the threshold” in the assay with TJP1_2, Q07157 (setting [1]); “below the threshold” with HTRA2, O43464 (setting [1]); “below the threshold” in the assay with TIAM2, Q8IVF5 (setting [1]); “below the threshold” in the assay with LIMK2, P53671 (setting [1]); 4.43 with DLG3_3, Q92796 (setting [1]); 3.66 with LNX1_2, Q8TBB1 (setting [1]).
Take PFRSRSPSEV [GPR6, P46095]: the pKd with PDZRN4_1, Q6ZMN7 (setting [1]) was 3.57; with RAPGEF6, Q8TEU7 (setting [1]), “below the threshold”; in the assay with SIPA1L2, Q9P2F8 (setting [1]), “below the threshold”; with NHERF3_3, Q5T2W1 (setting [1]) it was “below the threshold”; with SCRIB_2, Q14160 (setting [1]), “below the threshold”; with SHANK1, Q9Y566 (setting [1]) it was “below the threshold”. The pKd result with SNTB1, Q13884 (setting [1]) is “below the threshold”; with CARD11, Q9BXL7 (setting [1]) it was “below the threshold”; with SNTA1, Q13424 (setting [1]) it was “below the threshold”; with GIPC2, Q8TF65 (setting [1]), “below the threshold”; with DLG3_2, Q92796 (setting [1]), “below the threshold”; in the assay with MAST1, Q9Y2H9 (setting [1]) it was “below the threshold”. The pKd entry in the assay with PARD3_3, Q8TEW0 (setting [1]) is listed as “below the threshold”; with DLG4_1, P78352 (setting [1]) it was “below the threshold”; with IL16_1, Q14005 (setting [1]), “below the threshold”; with DLG3_1, Q92796 (setting [1]) it was “below the threshold”; in the assay with DFNB31_2, Q9P202 (setting [1]) it was “below the threshold”; with NHERF3_1, Q5T2W1 (setting [1]), “below the threshold”. Moreover, the negative-log Kd (pKd) entry with TJP1_2, Q07157 (setting [1]) is listed as “below the threshold”; with HTRA2, O43464 (setting [1]), “below the threshold”; with TIAM2, Q8IVF5 (setting [1]) it was “below the threshold”; in the assay with LIMK2, P53671 (setting [1]) it was “below the threshold”; in the assay with DLG3_3, Q92796 (setting [1]) it was “below the threshold”; in the assay with LNX1_2, Q8TBB1 (setting [1]), “below the threshold”.
On to SHSSKGETAV [FZD7, O75084], for which the pKd with PDZRN4_1, Q6ZMN7 (setting [1]) was 4.3; with RAPGEF6, Q8TEU7 (setting [1]), “below the threshold”; with SIPA1L2, Q9P2F8 (setting [1]) it was “below the threshold”; in the assay with NHERF3_3, Q5T2W1 (setting [1]), “below the threshold”; with SCRIB_2, Q14160 (setting [1]), 4.58; with SHANK1, Q9Y566 (setting [1]) it was “below the threshold”. The pKd in the assay with SNTB1, Q13884 (setting [1]) came to 4.49; with CARD11, Q9BXL7 (setting [1]) it was 3.67; in the assay with SNTA1, Q13424 (setting [1]), 4.34; in the assay with GIPC2, Q8TF65 (setting [1]) it was 3.62; with DLG3_2, Q92796 (setting [1]), 4.53; in the assay with MAST1, Q9Y2H9 (setting [1]) it was 4.77. For the same molecule, the pKd result in the assay with PARD3_3, Q8TEW0 (setting [1]) is “below the threshold”; with DLG4_1, P78352 (setting [1]), 4.4; with IL16_1, Q14005 (setting [1]), 3.66; with DLG3_1, Q92796 (setting [1]), 4.01; in the assay with DFNB31_2, Q9P202 (setting [1]), “below the threshold”; with NHERF3_1, Q5T2W1 (setting [1]) it was 4.22. For the same molecule, the pKd result with TJP1_2, Q07157 (setting [1]) was “below the threshold”; with HTRA2, O43464 (setting [1]), “below the threshold”; in the assay with TIAM2, Q8IVF5 (setting [1]), “below the threshold”; with LIMK2, P53671 (setting [1]), “below the threshold”; with DLG3_3, Q92796 (setting [1]), 4.12; in the assay with LNX1_2, Q8TBB1 (setting [1]), “below the threshold”.
YNSFLSVTTV [PDZRN3, Q9UPQ7]: the negative-log Kd (pKd) result is “below the threshold” with PDZRN4_1, Q6ZMN7 (setting [2]); “below the threshold” in the assay with RAPGEF6, Q8TEU7 (setting [2]); “below the threshold” in the assay with SIPA1L2, Q9P2F8 (setting [2]); “below the threshold” with NHERF3_3, Q5T2W1 (setting [2]); 3.69 with SCRIB_2, Q14160 (setting [2]); 3.66 with SHANK1, Q9Y566 (setting [2]). Besides, the pKd with SNTB1, Q13884 (setting [2]) was 3.72; with CARD11, Q9BXL7 (setting [2]), “below the threshold”; with SNTA1, Q13424 (setting [2]), 3.76; with GIPC2, Q8TF65 (setting [2]), “below the threshold”; in the assay with DLG3_2, Q92796 (setting [2]) it was 4.27; with MAST1, Q9Y2H9 (setting [2]), 3.98. For the same molecule, the pKd result is “below the threshold” with PARD3_3, Q8TEW0 (setting [2]); 3.84 with DLG4_1, P78352 (setting [2]); “below the threshold” with IL16_1, Q14005 (setting [2]); “below the threshold” in the assay with DLG3_1, Q92796 (setting [2]); “below the threshold” in the assay with DFNB31_2, Q9P202 (setting [2]); “below the threshold” with NHERF3_1, Q5T2W1 (setting [2]). Further, the pKd entry is “below the threshold” with TJP1_2, Q07157 (setting [2]); 3.48 with HTRA2, O43464 (setting [2]); “below the threshold” in the assay with TIAM2, Q8IVF5 (setting [2]); “below the threshold” with LIMK2, P53671 (setting [2]); 3.67 with DLG3_3, Q92796 (setting [2]); 4.23 with LNX1_2, Q8TBB1 (setting [2]).
